# Data as given in patent US20210324050A1 (published 2021).
# Where two headings read alike, the source gives them in different places.
# B1: 323A (antibody, V domains shown)
# VH: QVQLVESGGGVVQPGRSLRLSCAASGFTFSGSSLHWVRQAPGKGLEWVAAISYDGTNTYYADSVKGRFTLSRDNSKNTLYLQMNSLRAEDTAVYYCAKPVLSPFDYWGQGTLVTVSS
# VL: QSALTQPASVSGSPGQSITISCTGTSSDVGGYNYVSWYQQHPGKAPKLLIYEVSNRPSGVSRRFSGSKSGNTASLTISGLQAEDEADYYCCSYTSSSTEVFGGGTKLTVL
# B2: NORO-279A (antibody, V domains shown)
# VH: QVQLVESGGGVVQPGRSLRLSCAASGFTFTKYGMHWVRQAPGKGLEWVAFIAYDGSVKYYGDSAKGRFAISRDNPKNTVYLQMNSLRAEDTAVYYCAKVEIHYYSNSLLGMDVWGQGTLVTVSS
# VL: QSVLTQPPSASGTPGQRVTISCSGGNSNIGISYVYWYQHLPGTAPKLLISKNNLRPSGVPDRFSASKSGTSASLAISGLRSEDEAEYYCATLDINMTWVFGGGTKLTVL
# B3: NORO-156.3 (antibody, V domains shown)
# VH: QVQLQQWGAGLLKPSETLSLTCAVYGGSFSGYYWSWIRQPPGKGLEWIGEINHSGSTNYNPSLKSRVTISVDTSKNQFSLKLSSVTAADTAVYYCARGLMDVWGQGTLVTVSS
# VL: AIRMTQSPSSFSASTGDRVTITCRASQGISSYLAWYQQKPGKAPKLLIYAASTLQSGVPSRFSGSGSGTDFTLTISCLQSEDFATYYCQQYYSYPRTFGQGTKLEIK
# B4: 156.3 (antibody, V domains shown)
# VH: QVQLQQWGAGLLKPSETLSLTCAVYGGSFSGYYWSWIRQPPGKGLEWIGEINHSGSTNYNPSLKSRVTISVDTSKNQFSLKLSSVTAADTAVYYCARGLMDVWGQGTLVTVSS
# VL: AIRMTQSPSSFSASTGDRVTITCRASQGISSYLAWYQQKPGKAPKLLIYAASTLQSGVPSRFSGSGSGTDFTLTISCLQSEDFATYYCQQYYSYPRTFGQGTKLEIK
# B5: 178.6 (antibody, V domains shown)
# VH: QVQLVESGGGVVQPGRSLRLSCAASGFTFSTYGMNWVRQAPGRGLEWVADISYDGSNSRYADSVKGRFTISRDNSKNTLSLQMNGLRTEDTAVYYCAKDWYLAMAGAAFDSWGPGTLVTVSS
# VL: SSELTQDPVVSVALGQTVRITCQGDSLTTFYASWFQQKPGQAPALVLYGNDNRPSGIPDRFSGSRSGNTASLTITGAQAEDEADYYCNSRDSSGKPSFGGGTKLTVL
# B6: 327A (antibody, V domains shown)
# VH: QVQLEVSGGGLVKPGGSLRLSCAASGFTFTDYYMSWIRQAPGKGLEWVAYISGIMSSTKYADSVKGRFTISRDNGKNSVYLQMNSLTAEDTAVYYCARERVEPPSAVTDFWGQGTLVTVSS
# VL: QSVLTQSPSVSGAPGQRVTISCTGTSSNIGAGYDVHWYQQFPGTAPKLLISHNTNRPSGVPDRFSGSKSGTSASLAITGLQAEDEADYYCQSFDSSLRGSRVFGGGTKLTVL
# B7: 310A (antibody, V domains shown)
# VH: EVQLVESGGGLVRPGESLRLSCVASGFSVSDNYMSWVRQAPGKGLQWVSVIYSGGTTFYTDSVKGRFTISRDKSKNTLFLQMNSLRAEDTAVYFCTRDPSQYYDSRGHYYQTFTPSFDSWGQGTLVTVSS
# VL: DIQMTQSPSVMSASVGDRVTITCRASQDISDYLAWFQQKPGKVPKRLIYAASSLQNGVPSRFSGSGSGTEFTLTISSLQPEDFATYYCLQHDTYPLTFGGGTKVEIK
# B8: NORO-310A (antibody, V domains shown)
# VH: EVQLVESGGGLVRPGESLRLSCVASGFSVSDNYMSWVRQAPGKGLQWVSVIYSGGTTFYTDSVKGRFTISRDKSKNTLFLQMNSLRAEDTAVYFCTRDPSQYYDSRGHYYQTFTPSFDSWGQGTLVTVSS
# VL: DIQMTQSPSVMSASVGDRVTITCRASQDISDYLAWFQQKPGKVPKRLIYAASSLQNGVPSRFSGSGSGTEFTLTISSLQPEDFATYYCLQHDTYPLTFGGGTKVEIK
# B9: 232 (antibody, V domains shown)
# VH: QVQLKQWGAGLLKSSETLSLTCAFNGNSFGAFYWSWIRLSPGKGLEWIGEVNYLGGADYNPSLKSRVTMSADTSKRQFSLSLKSVTAADTGVYFCARGRPHDYSPGSYSRPRRYYGLDVWGQGTTVTVSS
# VL: EIVLTQSPATLSLSPGDSATLSCRASQAVSTTYLAWYQQTRGQAPRLLIHGTYTRAIGIPDKFSGTGSGTDFTLTISGLAPEDFAVYYCQQYSSSPYTFGQGTKIEIT
# B10: NORO-202A.1 (antibody, V domains shown)
# VH: QVQLVQSGAEVKKPGASVKVSCKASEYTFTGYYLQWVRQAPGHGLEWMGWINPSGGTKYSQKFQGRVTMTRDTSITTVYMELSRLRSDDTAVYYCARDLLRNWGDHDAFDVWGQGTMVTVSS
# VL: QSVLTQPPSASETPGQGVTISCSGSSSNIGSNFVCWYQQVPGTAPKLLIYKNNQRPSGVPDRFSGSKSGTSASLAISGLRSEDEADYYCSAWDDSLSGPVFGGGTKLTVL
# B11: 246A (antibody, V domains shown)
# VH: EVHLVESGGGLVKPGGSLRLSCAASGFTFSRYGMHWVRQAPGKGLEWVSSIVIRSDYKYYADSVKGRFTISRDNAKNSLYLQMNSLRADDTAVYYCARDLVEPGITPVGCDYWGRGTLVTVSS
# VL: SNELTQAPSVSVSPGQTARITCFGDALANQYSYWYQRKPGQAPVLVIYKDSERPSGIPQRFSASNSGTTVTLTITGVQAEDEADYFCQSADSTGIYKVFGGGTKLTVL
# B12: NORO-168.2 (antibody, V domains shown)
# VH: QVQLVESGGGVVQPGRSLRLSCAASGFTFSSYAMHWVRQAPGKGLEWVAVISYDGSNKYYADSVKGRFTISRDNSKNTLYLQMNSLRAEDTAVYYCARSVIGYYYYGMDVWGQGTLVTVSS
# VL: QPVLTQPPSASASLGASVTLTCTLSSGYSNYKVDWYQQRPGKGPRFVMRVGTGGIVGSKGDGIPDRFSVLGSGLNRYLTIKNIQEEDESDYHCGADHGSGILFGGGTKLTVL
# Experiments:
# [1] = biological target: GI.3 Protruding (norovirus GI.3); assay: ELISA
# [2] = biological target: GI.3 (norovirus GI.3); assay: ELISA
# [3] = biological target: GI.3 (norovirus GI.3); assay: VLP-PGM blockade
# [4] = biological target: GII.6 (AF414410) VLPs (norovirus GII.6); assay: ELISA
# [5] = biological target: T1, GII.4 Sydney 2012 shell (S) domain (UniProt P54635 1-221); assay: ELISA
# T1 chain: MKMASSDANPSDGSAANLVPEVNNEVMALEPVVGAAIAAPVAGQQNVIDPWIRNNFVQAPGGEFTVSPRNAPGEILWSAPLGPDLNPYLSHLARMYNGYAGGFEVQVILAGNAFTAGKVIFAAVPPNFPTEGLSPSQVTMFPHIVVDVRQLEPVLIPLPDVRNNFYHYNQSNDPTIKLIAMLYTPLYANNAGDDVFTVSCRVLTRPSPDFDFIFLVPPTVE
# [6] = biological target: T1, GII.4 Sydney 2012 shell (S) domain; assay: ELISA
# [7] = biological target: T2, GII.4 Houston 2002 (ABY27560.1) VLPs (UniProt P54635 1-539); assay: VLP blockade
# [8] = biological target: T2, GII.4 Houston 2002 (ABY27560.1) VLPs; assay: ELISA binding
# [9] = biological target: GII.6 (AF414410) VLPs (norovirus GII.6); assay: VLP-PGM blockade
# [10] = biological target: T3, GI.1 (M87661) VLPs (UniProt Q83884 1-530; Q83885 1-212); assay: ELISA
# T3 VP1: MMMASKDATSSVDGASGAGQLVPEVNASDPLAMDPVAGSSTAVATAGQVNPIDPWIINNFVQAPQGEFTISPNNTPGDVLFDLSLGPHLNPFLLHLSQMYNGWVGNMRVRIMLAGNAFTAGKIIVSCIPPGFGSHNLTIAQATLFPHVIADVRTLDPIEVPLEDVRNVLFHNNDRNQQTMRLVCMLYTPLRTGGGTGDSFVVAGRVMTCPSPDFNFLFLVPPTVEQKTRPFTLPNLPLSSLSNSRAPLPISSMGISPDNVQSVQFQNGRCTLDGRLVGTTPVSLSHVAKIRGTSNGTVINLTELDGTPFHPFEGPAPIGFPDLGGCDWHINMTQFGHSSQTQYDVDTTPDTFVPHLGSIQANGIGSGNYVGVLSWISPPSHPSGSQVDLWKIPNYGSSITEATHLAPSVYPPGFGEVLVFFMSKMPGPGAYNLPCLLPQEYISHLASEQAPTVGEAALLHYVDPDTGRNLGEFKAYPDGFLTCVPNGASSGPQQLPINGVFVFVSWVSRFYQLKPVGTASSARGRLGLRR
# T3 VP2: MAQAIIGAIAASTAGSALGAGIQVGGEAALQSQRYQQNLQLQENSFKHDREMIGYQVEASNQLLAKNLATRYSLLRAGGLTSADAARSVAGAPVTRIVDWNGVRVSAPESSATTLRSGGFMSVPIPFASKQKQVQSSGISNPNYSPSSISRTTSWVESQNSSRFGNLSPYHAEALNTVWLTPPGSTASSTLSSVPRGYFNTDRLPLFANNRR
# [11] = biological target: GI.2 (AF435807) VLPs (norovirus GI.2); assay: ELISA
# [12] = biological target: GII.13 (norovirus GII.13); assay: ELISA
# [13] = biological target: GII.17 (norovirus GII.17); assay: ELISA
# [14] = biological target: GII.3 (norovirus GII.3); assay: ELISA
# [15] = biological target: Protruding domain; assay: ELISA
# [16] = biological target: T4, GII.4 Houston 2002 VLP (UniProt P54635 1-539); assay: VLP blockade
# [17] = biological target: T4, GII.4 Houston 2002 VLP; assay: ELISA binding
# [18] = biological target: GII.4 Sydney 2012 VLP (UniProt P54635 1-538); assay: VLP-PGM blockade
binder,measurement,setting,value
B1,EC50,[1],7 nM
same,EC50,[2],3 nM
same,EC50,[3],15 nM
B2,EC50,[4],14 nM
same,EC50,[5],3 nM
same,EC50,[6],0.4 µg/mL
same,EC50,[7],> 100 µg/mL
same,EC50,[8],0.3 µg/mL
same,EC50,[9],32 nM
B3,EC50,[10],42 nM
same,EC50,[4],39 nM
same,EC50,[11],175 nM
same,EC50,[9],355 nM
B4,EC50,[12],54 nM
same,EC50,[13],90 nM
same,EC50,[2],47 nM
same,EC50,[3],678 nM
B5,EC50,[1],336 nM
same,EC50,[12],18 nM
same,EC50,[13],16 nM
same,EC50,[2],83 nM
same,EC50,[14],29 nM
same,EC50,[3],470 nM
B6,EC50,[15],0.5 µg/mL
same,EC50,[16],2.2 µg/mL
same,EC50,[17],0.3 µg/mL
same,EC50,[18],5 µg/mL
B7,EC50,[1],60 nM
same,EC50,[12],53 nM
same,EC50,[13],40 nM
same,EC50,[2],24 nM
same,EC50,[14],15 nM
same,EC50,[3],192 nM
B8,EC50,[4],44 nM
same,EC50,[5],19 nM
same,EC50,[6],1.8 µg/mL
same,EC50,[7],> 100 µg/mL
same,EC50,[8],0.6 µg/mL
B9,EC50,[18],4.4 µg/mL
B10,EC50,[5],3 nM
same,EC50,[6],0.2 µg/mL
same,EC50,[7],> 100 µg/mL
same,EC50,[8],0.1 µg/mL
same,EC50,[9],47 nM
B11,EC50,[15],0.9 µg/mL
same,EC50,[16],2.1 µg/mL
same,EC50,[18],7.4 µg/mL
B12,EC50,[4],198 nM
same,EC50,[11],265 nM
same,EC50,[5],78 nM
same,EC50,[9],7 nM
